Measurements: paper PMC6821830

Molecular target: TopBP1 BRCT1-6 (UniProt Q92547)
Test: GST-TopBP1 pull-down from cell extract, blot
Details: reference: wild-type MEFs, IR-treated; sites S29

In the case of “E2F1 (mouse) (from UniProt Q61501) E2f1 S29A knock-in MEFs, IR-treated”, the “binding against the reference” value is reported as “lost”.
